Substitutions are numbered along the chain they refer to. In names and notes the source's numbering stands.
T1: PUF4 RNA-binding domain (Saccharomyces cerevisiae, UniProt P25339 537-888)
T1 sequence: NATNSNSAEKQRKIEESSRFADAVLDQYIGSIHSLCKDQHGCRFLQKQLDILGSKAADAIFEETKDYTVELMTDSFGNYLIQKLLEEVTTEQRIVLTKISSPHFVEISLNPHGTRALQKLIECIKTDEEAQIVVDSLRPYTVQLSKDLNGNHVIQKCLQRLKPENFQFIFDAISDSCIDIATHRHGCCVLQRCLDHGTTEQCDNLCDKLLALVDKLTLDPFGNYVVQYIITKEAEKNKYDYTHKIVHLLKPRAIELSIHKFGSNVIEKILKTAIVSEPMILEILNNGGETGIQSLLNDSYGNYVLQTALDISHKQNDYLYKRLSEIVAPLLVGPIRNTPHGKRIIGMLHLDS

B1: Ib_S2_P3E.1_K3.1_C3.1_H3.1_[T1C]_A3.1_F3.1_[T7A]_T3.1 (ssRNA)
RNA: UUUGAUUAAUAUGAUAUCGUUCUUUCUCGUAUAAAUUCUUUCUCGAUAUCAUAUUAAUCUUU
B2: Ib_S2_P3E.1_K3.1_C3.1_H3.1_[A4G]_A3.1_F3.1_[T7A]_T3.1 (ssRNA)
RNA: B1 RNA with C28U, A31G
B3: Ib_S2_P3E.1_K3.1_C3.1_H3.1_[G2C]_A3.1_F3.1_[T7A]_T3.1 (ssRNA)
RNA: B1 RNA with C28U, G29C
B4: Ib_S2_P3E.1_K3.1_C3.1_H3.1_[A4T]_A3.1_F3.1_[T7A]_T3.1 (ssRNA)
RNA: B1 RNA with C28U, A31U
B5: Ib_S2_P3E.1_K3.1_C3.1_H3.1_[T1G]_A3.1_F3.1_[A8G]_T3.1 (ssRNA)
RNA: B1 RNA with C28G, A34U, A35G

target: T1, PUF4 RNA-binding domain; assay: Mg; RNA-MaP; 20 mM Na-HEPES pH 7.4, 30 mM KOAc, 0.75 mM MgCl2, 0.1% Tween-20, 5% glycerol, 0.1 mg/mL BSA, 2 mM DTT; 25 C; 0.0125-409.6 nM protein; conditions: tags: N-His6-TEV cleaved; C-SNAP kept, Cy3B-labelled; label: tethered on chip by stalled RNA polymerase

| Binder | Kd [nM] |
| --- | --- |
| UCUCUUUGUAUAUUCCUCUAUCUCUU (ssRNA) [Ie_S1_P4E.1_K4.1_C4.1_H4.1_A4.1_F4.1_[+8CCTCT]_T4.1] | 6.71 |
| UCUCUUUCCCUGUAUUAUUAUCUCUU (ssRNA) [Ie_S1_P5E.1_K5.1_C5.1_H5.1_[+1CCCT]_A5.1_F5.1_T5.1] | 5.88 |
| UCUCUUUCCUGUAUUAUUAUCUCUU (ssRNA) [Ie_S1_P5E.1_K5.1_C5.1_H5.1_[+1CCT]_A5.1_F5.1_T5.1] | 7.97 |
| UCUCUUUGUAUAUUACCCUUUCUCUU (ssRNA) [Ie_S1_P4E.1_K4.1_C4.1_H4.1_A4.1_F4.1_[+9CCCTT]_T4.1] | 0.925 |
| UCUCUUUGUAUAUUACCCUCUCUU (ssRNA) [Ie_S1_P4E.1_K4.1_C4.1_H4.1_A4.1_F4.1_[+9CCC]_T4.1] | 1.11 |
| UCUCUUUGUAUAUUACUUCUCUU (ssRNA) [Ie_S1_P4E.1_K4.1_C4.1_H4.1_A4.1_F4.1_[+9CT]_T4.1] | 0.578 |
| UCUCUUUGUAUAUUAUCUCUUCUCUU (ssRNA) [Ie_S1_P4E.1_K4.1_C4.1_H4.1_A4.1_F4.1_[+9TCTCT]_T4.1] | 0.824 |
| UCUCUUUGUAUAUCCUCUAUCUCUU (ssRNA) [Ie_S1_P4E.1_K4.1_C4.1_H4.1_A4.1_[+7CCTC]_F4.1_T4.1] | 25.3 |
| UCUCUUUGUAUAUUAUUCCUCUCUU (ssRNA) [Ie_S1_P4E.1_K4.1_C4.1_H4.1_A4.1_F4.1_[+9TTCC]_T4.1] | 0.476 |
| UCUCUUUUCUCGUAUUAUUAUCUCUU (ssRNA) [Ie_S1_P5E.1_K5.1_C5.1_H5.1_[+1TCTC]_A5.1_F5.1_T5.1] | 1230 |
| UCUCUUUCUCUCGUAUUAUUAUCUCUU (ssRNA) [Ie_S1_P5E.1_K5.1_C5.1_H5.1_[+1CTCTC]_A5.1_F5.1_T5.1] | 1240 |
| UCUCUUUGUAUAUUAUUCUCUU (ssRNA) [Ie_S1_P4E.1_K4.1_C4.1_H4.1_A4.1_F4.1_[+9T]_T4.1] | 0.531 |
| UCUCUUUGUAUAUUAUCCUCUCUU (ssRNA) [Ie_S1_P4E.1_K4.1_C4.1_H4.1_A4.1_F4.1_[+9TCC]_T4.1] | 0.48 |
| UCUCUUUGUAUAUUUCUCUAUCUCUU (ssRNA) [Ie_S1_P4E.1_K4.1_C4.1_H4.1_A4.1_F4.1_[+8TCTCT]_T4.1] | 6.66 |
| UCUCUUUCUCGUAUUAUUAUCUCUU (ssRNA) [Ie_S1_P5E.1_K5.1_C5.1_H5.1_[+1CTC]_A5.1_F5.1_T5.1] | 1250 |
| UCUCUUUCGUAUUAUUAUCUCUU (ssRNA) [Ie_S1_P5E.1_K5.1_C5.1_H5.1_[+1C]_A5.1_F5.1_T5.1] | 1320 |
| UCUCUUUGUAUAUUUUCAUCUCUU (ssRNA) [Ie_S1_P4E.1_K4.1_C4.1_H4.1_A4.1_F4.1_[+8TTC]_T4.1] | 6.76 |
| UCUCUUUGUAUAUUAUCUUCUCUU (ssRNA) [Ie_S1_P4E.1_K4.1_C4.1_H4.1_A4.1_F4.1_[+9TCT]_T4.1] | 0.632 |
| UCUCUUUUUUGUAUUAUUAUCUCUU (ssRNA) [Ie_S1_P5E.1_K5.1_C5.1_H5.1_[+1TTT]_A5.1_F5.1_T5.1] | 6.28 |
| UCUCUUUGUAUAUUACCUUCUCUU (ssRNA) [Ie_S1_P4E.1_K4.1_C4.1_H4.1_A4.1_F4.1_[+9CCT]_T4.1] | 0.795 |
| UCUCUUUGUAUAUCCUCUUAUCUCUU (ssRNA) [Ie_S1_P4E.1_K4.1_C4.1_H4.1_A4.1_[+7CCTCT]_F4.1_T4.1] | 31.7 |
| UCUCUUUGUAUAUUUUCCUAUCUCUU (ssRNA) [Ie_S1_P4E.1_K4.1_C4.1_H4.1_A4.1_F4.1_[+8TTCCT]_T4.1] | 5.96 |
| UCUCUUUGUAUAUUCCCUAUCUCUU (ssRNA) [Ie_S1_P4E.1_K4.1_C4.1_H4.1_A4.1_F4.1_[+8CCCT]_T4.1] | 6.32 |
| UCUCUUUUGUAUUAUUAUCUCUU (ssRNA) [Ie_S1_P5E.1_K5.1_C5.1_H5.1_[+1T]_A5.1_F5.1_T5.1] | 5.92 |
| B1 | > 2300 |
| B2 | 35.3 |
| B3 | > 2300 |
| B4 | 1590 |
| B5 | 1140 |
| UCUCUUUCUUGUAUUAUUAUCUCUU (ssRNA) [Ie_S1_P5E.1_K5.1_C5.1_H5.1_[+1CTT]_A5.1_F5.1_T5.1] | 4.33 |

— paper PMC9352680, “A comprehensive thermodynamic model for RNA binding by the Saccharomyces cerevisiae Pumilio protein PUF4”
